These results are taken from patent US20030229207A1 (published 2003).

Experiment [1] concerns the target rat CD5 antigen present on rat T cells (rat) (UniProt P51882). The experiment in a line: flow cytometry, rat blood cells 3 h after 0.5 mg/kg i.v. For orientation: Flow cytometry measures light scatter and fluorescence of single cells or particles in a stream.
Experiment [2] shares this target. The experiment in a line: flow cytometry, rat spleen cells 3 h after 0.5 mg/kg i.v.
Experiment [3] shares this target. The experiment in a line: flow cytometry, rat lymph node cells 3 h after 0.5 mg/kg i.v.
Experiment [4] has as its target T1, human CD5 cell differentiation marker (human, UniProt P06127 25-495).
T1 construct: whole, on cells; Cell-surface CD5; also called CD5 antigen; gp67
T1 sequence (looked up): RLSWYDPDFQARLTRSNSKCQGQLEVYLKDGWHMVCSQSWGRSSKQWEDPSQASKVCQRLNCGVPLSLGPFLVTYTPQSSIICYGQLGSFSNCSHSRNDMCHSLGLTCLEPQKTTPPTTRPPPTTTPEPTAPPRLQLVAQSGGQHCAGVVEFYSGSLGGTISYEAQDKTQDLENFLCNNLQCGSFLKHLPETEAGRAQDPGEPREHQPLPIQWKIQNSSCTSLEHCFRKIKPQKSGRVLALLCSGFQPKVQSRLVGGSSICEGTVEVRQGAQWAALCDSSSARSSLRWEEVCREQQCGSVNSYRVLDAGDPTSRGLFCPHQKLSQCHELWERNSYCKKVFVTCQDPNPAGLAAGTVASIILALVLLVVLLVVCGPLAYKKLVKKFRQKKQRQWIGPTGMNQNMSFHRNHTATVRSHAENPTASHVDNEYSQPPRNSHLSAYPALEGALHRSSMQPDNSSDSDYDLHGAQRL
The experiment in a line: competition with 0.1 nM ^125I-cH65 IgG on Molt-4M cells, fitted with MacLigand. Here is the method: Competitive binding was performed as follows: 100 μl of Molt-4M cells were washed two times in ice-cold DHB binding buffer (Dubellco's modified Eagle's medium (Gibco, 320-1965PJ), 1.0% BSA and 10 mM Hepes at pH 7.2.-7.4). Cells were resuspended in the same buffer, plated into 96 v-bottomed wells (Costar) at 3×10⁵ cells per well and pelleted at 4° C. by centrifugation for 5 min at 1,000 rpm using a Beckman JS 4.2 rotor; 50 μl of 2×-concentrated 0.1 nM ¹²⁵I-cH65 IgG in DHB was then added to each well and competed with 50 μl of 2×-concentrated cH65 IgG or humanized antibody in DHB at final antibody concentrations from 100 nM to 0.0017 nM. Humanized antibody was obtained from culture supernatants of Sp2/0 clone C1718 which expresses he3 IgG. The concentration of the antibody in the supernatants was established by ELISA using a chimeric antibody as a standard. The concentration of the antibody in the purified preparation was determined by […] to proceed at 4° C. for 5 hrs and was terminated by washing cells three times with 200 Al of DHB binding buffer by centrifugation for 5 min at 1,000 rpm. All buffers and operations were at 4° C. Radioactivity was determined by solubilizing cells in 100 μl of 1.0 M NaOH and counting in a Cobra II auto gamma counter (Packard). Data from binding experiments were analyzed by the weighted nonlinear least squares curve fitting program, MacLigand, a Macintosh version of the computer program “Ligand” from Munson, Analyt. Biochem., 107:220 (1980). Objective statistical criteria (F, test, extra sum squares principle) were used to evaluate goodness of fit and for discriminating between models. Nonspecific binding was treated as a parameter subject to error and was fitted simultaneously with other parameters.

The target in experiment [5] is T1, human CD5 cell differentiation marker. Nature of the experiment: FACS-based competitive assay, experiment 2; reference mouse H65 = 100%.
The target is the same in experiment [6]. The experiment in a line: FACS-based competitive assay, experiment 1; reference mouse H65 = 100%.
Experiment [7] shares this target. Nature of the experiment: FACS-based competitive assay, mean of 3 experiments ± SD; reference mouse H65 = 100%.
For experiment [8] the target is unchanged. Nature of the experiment: FACS-based competitive assay, experiment 3; reference mouse H65 = 100%.

Residue numbers refer to the chain shown, from its start.

Chain of rat CD5 antigen present on rat T cells (rat) (P51882 24-491): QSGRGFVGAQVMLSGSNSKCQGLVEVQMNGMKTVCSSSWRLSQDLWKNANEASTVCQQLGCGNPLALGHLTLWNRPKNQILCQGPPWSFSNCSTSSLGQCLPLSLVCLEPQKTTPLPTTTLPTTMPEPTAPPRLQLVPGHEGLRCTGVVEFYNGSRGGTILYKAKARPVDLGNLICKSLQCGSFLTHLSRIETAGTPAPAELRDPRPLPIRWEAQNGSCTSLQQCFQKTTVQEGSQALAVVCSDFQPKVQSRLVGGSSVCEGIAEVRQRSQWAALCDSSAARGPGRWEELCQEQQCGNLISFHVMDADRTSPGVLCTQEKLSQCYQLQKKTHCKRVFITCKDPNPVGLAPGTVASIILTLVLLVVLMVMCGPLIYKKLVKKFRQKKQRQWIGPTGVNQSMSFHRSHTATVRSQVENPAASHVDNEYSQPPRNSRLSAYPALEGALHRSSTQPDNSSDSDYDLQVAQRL

As for OX19 MoAb (antibody), the results for the % of CD4 cells positive for surface-bound mouse IgG1 (CD4/mIgG1) in experiment [1], in experiment [2] and in experiment [3] were 96.2%, 84.8% and 96.2%, respectively. In addition, the % of CD8 cells positive for surface-bound mouse IgG1 (CD8/mIgG1) amounted to 70.2% in experiment [1], 73.6% in experiment [2] and 96.8% in experiment [3].

B1: chimeric H65 IgG (antibody, V domains shown)
VH: QIQLVQSGPELKKPGETVKISCKASGYTFTNYGMNWVKQAPGKGLRWMGWINTHTGEPTYADDFKGRFAFSLETSASTAYLQINNLKNEDTATYFCTRRGYDWYFDVWGAGTTVTVSS
VL: DIKMTQSPSSMYASLGERVTITCKASQDINSYLSWFQQKPGKSPKTLIYRANRLVDGVPSRFSGSGSGQDYSLTISSLDYEDMGIYYCQQYDESPWTFGGGTKLEIK
notes: Light and heavy chain each consist of unmodified mouse V/J-segments fused to a human C-segment (human kappa / human gamma by the ELISA used); also called purified cH65 IgG
A word on the Kd: it is the free concentration of one partner at which half of the binding sites on the other are occupied at equilibrium, for simple one-to-one binding. In turn, B1 came in with a Kd in experiment [4] of 2.3 nM. The “cH65 Affinity Relative to H65 (100%)” value in experiment [5] is 106%; in experiment [6], 113%; in experiment [7], 105%; in experiment [8], 96.3%.

B2: low-risk he1 Fab (Fab, V domains shown)
VH: QIQLVQSGPGLKKPGGSVRISCAASGYTFTNYGMNWVKQAPGKGLRWMGWINTHTGEPTYADDFKGRFTFSLDTSKSTAYLQINSLRAEDTATYFCTRRGYDWYFDVWGQGTTVTVSS
VL: B1 VL with K3Q, Y12S, E17D, K24R, Q69T, S72T, D79Q, M83F
notes: also called hel Fab; Low-Risk Fab
B2 showed a Kd in experiment [4] of 14.3 nM.

B3: chimeric H65 Fab (Fab, V domains shown)
VH: B1 VH
VL: B1 VL
notes: Fab of the chimeric H65 antibody; also called Chimeric Fab
In turn, B3 showed a Kd in experiment [4] of 18.4 nM.

B4: low risk humanized H65 (he1) IgG (antibody, V domains shown)
VH: B2 VH
VL: B1 VL with K3Q, Y12S, E17D, K24R, Q69T, S72T, D79Q, M83F
notes: Whole IgG with human constant regions (detected with anti-human kappa and anti-human gamma), expressed transiently in CHO-K1; also called he1 H65 antibody; hH65
B4 showed a Kd in experiment [4] of 2.1 nM.

B5: he3 Fab (Fab, V domains shown)
VH: B2 VH with Q1E, P9G, K12V, K38R, R46E, D63S, T74D, S77N, T93V
VL: DIQMTQSPSSLSASVGDRVTITCRASQDINSYLSWFQQKPGKAPKTLIYRANRLESGVPSRFSGSGSGTDYTLTISSLQYEDFGIYYCQQYDESPWTFGGGTKLEIK
notes: Fab (he3 kappa and Fd) expressed in E. coli E104 from pING4628; also called Moderate-Risk Fab
On to B5, for which, in experiment [4], binding was characterised by a dissociation constant (Kd) of 2.2 nM.
